Data from patent US20200375880A1, “PLANT EXTRACTS FROM THE TAGETES GENUS AND USES OF SAME” (PLANT ADVANCED TECHNOLOGIES PAT, priority 2016, published 2020).

What was measured:
[1] = test system: rat primary cortical neurons; assay: Survival of primary cortical neurons injured by Aβ1-42 peptide (MAP-2 staining); assay type: cell-based; conditions: Aβ1-42 peptide 20 μM, 24 hours, 0.1% DMSO
Experimental: (§1) The purpose of this study is to evaluate the effects of the root extract on rat primary cortical neurons, intoxicated by Aβ peptide according to the in vitro Alzheimer disease model described in Callizot et al., 2013 (Callizot N. et al., Operational dissection of β-amyloid cytopathic effects on cultured neurons, J Neurosci Res. 2013, 91: 706-16). The neuron survival as well as the integrity of the neuritic network are evaluated.
(§2) Four concentrations are tested: 10 ng/mL, 100 ng/mL, 1 μg/mL and 10 μg/mL of dry extract diluted in water with 0.1% of DMSO.
(§3) Rat cortical neurons are cultured as described in Singer et al., 1999 (Singer C, et al., Mitogen-activated protein kinase pathway mediates estrogen neuroprotection after glutamate toxicity in primary cortical neurons. J Neurosci. 1999, 19: 2455-2463) and Callizot et al., (2013). In summary, gravid female rats are killed by cervical dislocation after 15 days of pregnancy. The foetuses are collected and immediately placed on an ice L15 Leibovitz medium (Pan Biotech, Batch: 8810315) added with 2% of penicillin (10,000 U/mL) and a streptomycin solution (l0 mg/mL) (PS; Pan Biotech, batch: 1451013) and 1% of bovine serum albumin (BSA; Pan Biotech, batch: K180713). […] The viable cells are counted with a Neubauer cytometer, using the trypan blue exclusion test. […]

[2] = test system: neuritic network of rat primary cortical neurons; assay: Neuritic network of primary cortical neurons injured by Aβ1-42 peptide (MAP-2 staining); assay type: cell-based; conditions: Aβ1-42 peptide 20 μM, 24 hours, 0.1% DMSO
Experimental: as §1, §2, §3

cells = conditions: pre-treatment of cells with leontopodic acid, Costa et al. 2010; cited from earlier work

Aβ1-42 peptide: β-amyloid peptide (Bachem) used at 20 μM to intoxicate cortical neurons
neurone death induced by the peptide alone [1]: significant neurone death | loss of the neuritic network induced by the peptide alone [2]: significant loss of the neuritic network

C[C@H](O)CC(=O)O[C@@H](C(=O)O)[C@@H](OC(=O)/C=C/c1ccc(O)c(O)c1)[C@H](OC(=O)/C=C/c1ccc(O)c(O)c1)[C@H](OC(=O)/C=C/c1ccc(O)c(O)c1)C(=O)O [leontopodic acid]
cell survival (cells): no improvement in the cell survival | production of reactive oxygen species (ROS) (cells): decrease in the production of reactive oxygen species (ROS)
